Assays:
[1] = biological target: T1, E. coli expressed N-terminal Unizyme tagged SdrD, incubated with S. aureus lysate (Staphylococcus aureus (USA300), UniProt Q2FJ78 36-1347, modified by incubation with cleared lysate of delta-Pan Sdr mutant Newman S. aureus; modification not identified); test: Western blot of NiNta-captured E. coli protein after incubation with S. aureus lysate
T1 construct: mature; Made in E. coli 58F3, purified, captured on NiNta resin, then incubated with S. aureus lysate for 1 hr at 37 C; also called E. coli expressed Sdr protein SdrD; not shown: N-terminal Unizyme tag (ST239 vector, Genentech)
T1 sequence (Q2FJ78 36-1347): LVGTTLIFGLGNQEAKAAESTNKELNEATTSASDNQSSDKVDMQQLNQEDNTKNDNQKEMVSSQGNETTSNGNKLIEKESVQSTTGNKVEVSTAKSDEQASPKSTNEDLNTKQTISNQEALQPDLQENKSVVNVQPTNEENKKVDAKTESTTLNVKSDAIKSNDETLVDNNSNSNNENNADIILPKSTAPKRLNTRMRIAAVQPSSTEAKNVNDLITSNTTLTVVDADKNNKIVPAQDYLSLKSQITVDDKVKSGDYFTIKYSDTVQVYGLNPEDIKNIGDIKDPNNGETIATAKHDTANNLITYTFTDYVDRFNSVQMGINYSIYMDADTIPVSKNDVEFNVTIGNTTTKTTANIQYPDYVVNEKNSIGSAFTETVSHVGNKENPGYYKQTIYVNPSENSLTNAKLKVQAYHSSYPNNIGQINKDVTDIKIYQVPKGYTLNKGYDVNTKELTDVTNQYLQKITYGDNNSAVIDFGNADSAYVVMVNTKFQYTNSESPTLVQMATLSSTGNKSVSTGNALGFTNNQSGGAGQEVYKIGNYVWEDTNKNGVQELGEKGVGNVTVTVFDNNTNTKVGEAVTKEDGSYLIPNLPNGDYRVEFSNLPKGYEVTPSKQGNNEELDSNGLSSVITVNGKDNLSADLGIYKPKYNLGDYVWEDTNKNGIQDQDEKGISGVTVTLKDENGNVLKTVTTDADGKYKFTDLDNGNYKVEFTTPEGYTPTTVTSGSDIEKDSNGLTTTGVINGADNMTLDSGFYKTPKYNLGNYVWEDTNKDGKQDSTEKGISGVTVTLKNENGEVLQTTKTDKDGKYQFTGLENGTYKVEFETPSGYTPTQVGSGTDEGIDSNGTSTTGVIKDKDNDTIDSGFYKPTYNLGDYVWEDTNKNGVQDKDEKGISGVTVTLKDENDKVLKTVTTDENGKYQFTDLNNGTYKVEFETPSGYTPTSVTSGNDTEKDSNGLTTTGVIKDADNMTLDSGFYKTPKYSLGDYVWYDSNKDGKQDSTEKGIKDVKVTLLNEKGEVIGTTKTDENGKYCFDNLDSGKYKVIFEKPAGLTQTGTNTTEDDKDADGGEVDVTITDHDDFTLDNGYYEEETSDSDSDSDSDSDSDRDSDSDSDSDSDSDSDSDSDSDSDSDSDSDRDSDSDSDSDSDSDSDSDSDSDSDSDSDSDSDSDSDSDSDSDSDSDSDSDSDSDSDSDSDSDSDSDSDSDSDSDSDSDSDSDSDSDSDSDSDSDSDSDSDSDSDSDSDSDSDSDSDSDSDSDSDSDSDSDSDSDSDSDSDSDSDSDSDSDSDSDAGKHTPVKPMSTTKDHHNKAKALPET

[2] = biological target: T2, E. coli expressed N-terminal Unizyme tagged SdrC, incubated with S. aureus lysate (Staphylococcus aureus (USA300), UniProt Q2FJ79 51-913, modified by incubation with cleared lysate of delta-Pan Sdr mutant Newman S. aureus; modification not identified); test: as above
T2 construct: mature; Made in E. coli 58F3, purified, captured on NiNta resin, then incubated with S. aureus lysate for 1 hr at 37 C; also called E. coli expressed Sdr protein SdrC; not shown: N-terminal Unizyme tag (ST239 vector, Genentech)
T2 sequence (Q2FJ79 51-913): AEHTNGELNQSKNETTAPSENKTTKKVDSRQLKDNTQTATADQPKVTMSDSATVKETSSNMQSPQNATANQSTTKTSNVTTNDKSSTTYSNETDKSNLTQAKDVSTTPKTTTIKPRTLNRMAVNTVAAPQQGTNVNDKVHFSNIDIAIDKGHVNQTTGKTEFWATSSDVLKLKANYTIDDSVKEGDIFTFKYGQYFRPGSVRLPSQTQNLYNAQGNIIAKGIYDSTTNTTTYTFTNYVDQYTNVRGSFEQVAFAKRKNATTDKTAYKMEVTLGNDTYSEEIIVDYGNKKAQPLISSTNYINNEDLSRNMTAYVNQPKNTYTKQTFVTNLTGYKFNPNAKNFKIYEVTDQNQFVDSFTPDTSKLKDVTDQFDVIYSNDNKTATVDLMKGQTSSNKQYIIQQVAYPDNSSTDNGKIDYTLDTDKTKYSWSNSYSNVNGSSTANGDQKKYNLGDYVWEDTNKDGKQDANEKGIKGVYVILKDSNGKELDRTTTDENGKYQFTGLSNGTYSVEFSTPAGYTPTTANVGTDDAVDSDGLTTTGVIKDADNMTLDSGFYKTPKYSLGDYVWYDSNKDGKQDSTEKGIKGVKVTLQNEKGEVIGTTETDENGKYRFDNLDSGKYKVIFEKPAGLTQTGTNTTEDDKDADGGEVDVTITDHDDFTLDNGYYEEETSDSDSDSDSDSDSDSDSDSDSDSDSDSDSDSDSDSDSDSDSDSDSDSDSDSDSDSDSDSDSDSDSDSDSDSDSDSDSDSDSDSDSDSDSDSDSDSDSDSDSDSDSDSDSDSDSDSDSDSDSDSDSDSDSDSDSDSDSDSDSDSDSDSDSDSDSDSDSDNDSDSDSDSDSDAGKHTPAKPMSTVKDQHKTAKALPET

[3] = biological target: T3, E. coli expressed N-terminal Unizyme tagged SdrE, incubated with S. aureus lysate (Staphylococcus aureus (USA300), UniProt Q2FJ77 53-1120, modified by incubation with cleared lysate of delta-Pan Sdr mutant Newman S. aureus; modification not identified); test: as above
T3 construct: mature; Made in E. coli 58F3, purified, captured on NiNta resin, then incubated with S. aureus lysate for 1 hr at 37 C; also called E. coli expressed Sdr protein SdrE; not shown: N-terminal Unizyme tag (ST239 vector, Genentech)
T3 sequence (Q2FJ77 53-1120): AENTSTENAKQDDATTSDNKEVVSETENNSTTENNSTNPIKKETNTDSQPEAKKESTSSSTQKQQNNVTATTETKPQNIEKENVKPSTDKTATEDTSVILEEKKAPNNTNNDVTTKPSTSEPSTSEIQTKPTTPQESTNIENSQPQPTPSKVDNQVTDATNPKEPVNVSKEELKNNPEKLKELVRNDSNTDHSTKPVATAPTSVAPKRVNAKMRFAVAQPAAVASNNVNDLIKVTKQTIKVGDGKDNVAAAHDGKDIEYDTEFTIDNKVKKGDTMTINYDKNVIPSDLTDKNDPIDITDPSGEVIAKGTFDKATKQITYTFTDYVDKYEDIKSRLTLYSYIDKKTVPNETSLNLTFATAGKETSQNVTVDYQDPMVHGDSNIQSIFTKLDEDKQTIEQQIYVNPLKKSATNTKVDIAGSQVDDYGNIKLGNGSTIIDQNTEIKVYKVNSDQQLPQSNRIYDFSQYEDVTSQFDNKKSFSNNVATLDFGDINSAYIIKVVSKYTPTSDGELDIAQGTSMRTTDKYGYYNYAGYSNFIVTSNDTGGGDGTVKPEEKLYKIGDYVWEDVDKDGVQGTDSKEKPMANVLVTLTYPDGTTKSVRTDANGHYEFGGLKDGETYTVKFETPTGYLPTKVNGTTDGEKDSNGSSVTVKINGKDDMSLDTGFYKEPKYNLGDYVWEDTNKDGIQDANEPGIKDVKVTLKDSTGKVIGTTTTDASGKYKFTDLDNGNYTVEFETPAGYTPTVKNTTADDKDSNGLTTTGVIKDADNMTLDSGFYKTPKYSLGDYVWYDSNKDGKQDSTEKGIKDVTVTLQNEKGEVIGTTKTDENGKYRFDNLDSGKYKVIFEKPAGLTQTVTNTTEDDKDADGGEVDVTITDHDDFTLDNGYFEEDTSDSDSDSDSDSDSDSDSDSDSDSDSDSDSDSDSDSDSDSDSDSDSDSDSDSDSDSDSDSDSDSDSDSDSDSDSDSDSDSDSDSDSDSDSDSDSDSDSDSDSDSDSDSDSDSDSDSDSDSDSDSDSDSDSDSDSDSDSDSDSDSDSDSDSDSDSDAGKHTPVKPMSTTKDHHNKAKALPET

[4] = biological target: T4, MBP-DSD with C-terminal His tag, expressed in S. aureus (UniProt P0AEX9 27-396 = MBP); test: Western blot of MBP fusion constructs expressed in S. aureus
T4 construct: mature; One of the small SD peptide constructs, expressed in S. aureus RN4220 delta sortase; not shown: C-terminal His tag

[5] = biological target: T5, MBP-SD with C-terminal His tag, expressed in S. aureus (UniProt P0AEX9 27-396 = MBP); test: as above
T5 construct: mature; One of the small SD peptide constructs, expressed in S. aureus RN4220 delta sortase; not shown: C-terminal His tag

[6] = biological target: T6, MBP-SDS with C-terminal His tag, expressed in S. aureus (UniProt P0AEX9 27-396 = MBP); test: as above
T6 construct: mature; One of the small SD peptide constructs, expressed in S. aureus RN4220 delta sortase; not shown: C-terminal His tag

B1: antibody F1 (antibody, V domains shown)
VH: EVQLLESGGGLVQPGGSLRLSCAASGFTLSRFAMSWVRQAPGRGLEWVASINNGNNPYYARSVQYRFTVSRDVSQNTVSLQMNNLRAEDSATYFCAKDHPSSGWPTFDSWGPGTLVTVSS
VL: DIQLTQSPSALPASVGDRVSITCRASENVGDWLAWYRQKPGKAPNLLIYKTSILESGVPSRFSGSGSGTEFTLTISSLQPDDFATYYCQHYIRFPYTFGQGTKLEIKR
notes: also called rF1; recombinant F1
[1]
  binding result: binds
[2]
  binding result: binds
[3]
  binding result: binds
[4]
  binding result: no binding
[5]
  binding result: no binding
[6]
  binding result: no binding
